Target: T1, NanoSpike
T1 construct: also called IH4vs2-Spike
Assay: flow cytometry on human whole blood, detected with FITC-conjugated anti-Strep-tag antibodies

B1: Glycophorin A (GYPA) on the surface of human red blood cells (other)
chain: LSTTEVAMHTSTSSSVTKSYISSQTNDTHKRDTYAATPRAHEVSEISVRTVYPPEEETGERVQLAHHFSEPEITLIIFGVMAGVIGTILLISYGIRRLIKKSPSDVKPLPSPDTDVPLSSVEIENPETSDQ
notes: whole, on cells; also called GPA; RBC
- binding result: binds

From US11175293 (UNIVERSITY OF UTAH RESEARCH FOUNDATION, dated 2021)
